Measurements from a protein production outcome set (Wang et al. 2014).

Experiment: label from the status in PepcDB records
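Also: failed if final PepcDB status was selected cloned or expressed and not failed if soluble or beyond.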

| Sequence | protein production |
| --- | --- |
| MKPAKVSLLHRLLQCLKQCVDCNTVNRFTAINIFVNILLISAVISFPYSAAAHGATQSGDQYSSFEELERNEDPASYRITEKNARVPMLIMAIHGGGIEPGTSEIANEVSKNYSLYLFEGLKSSGNTDLHITSTRFDEPAALAITASHQYVMSLHGYYSEDRDIKVGGTDRAKIRILVDELNRSGFAAEMLGTDDKYAGTHPNNIANKSLSGLSIQLEMSTGFRKSLFDRFTLKDRAATQNETFYRFTKLLTDFIHENYEEDGGDFPSAKIKHPLQV | failed |
| MFNNKQKQLVIILISLLLTFTSQASLASDTTILNEIINPQLIHIYEWETLSVYEKENVSQKPANWDSAESFYGSTRLSLLGEERFYRAKFTIGWHHRTRNLAISVGPLKGTDEVYINGFRVDDSGSGDYDLFFQNSYRVYRLPRNKTWFSWFNYTKENELLIKLSSSKRGQVLDSDYVEIGDYETLALKSRDFDSTIKTSQGSAIALLFMLILFIIFLHVNQYNKKSNTLFGFFIFYLSLSIASTSLFLNGPEYDGELLLSLSACLDLVSLVVFIKIVSDKFDLNISHYKRNEKSIKIFGTVSVLCILIFSDIFFAQKWFNLIIYIVMLLVVISTIHQLVIGRNIGGANYSIVSALMIMFLGVAFNGLWGGNSWPISPYHIGAILSSIFLLYSIAQDFKKMTLSMHAMSSRLVNIREIERARLTRDIHDGVGQGLATIRLFITMNINNFEPQLGISLKNEVDQTSNTLKSVIRNLKPIEMDDGNPSEAIIELARHLCEIAQIEMKVIHSDKADMNTENAYQLYRIGQEALNNSIKHSCCTLITIDIQRDRDRLIMSISDNGKGIKKQVENLGYGLSSMQERALLIGGQLRINNAIDSGVQVFLEVPIND | failed |
| MEFDKGQTLGNFIDRIRLNGYNTECVFNQSICQDIKNHYKQQCCAMCGVRGNSENTQIEVDHKDGRKDDSRVSDLSTQAFDDFQALCKACNDKKRQICKKCKETGYRFDARKIPGNHYSFYEGEAEYDGCVGCYQYDPIQYRKTCNDRIYNEGYQKGYSDGYQIGYHQKTT | failed |
| SSPFPIPNTQYPISNPQFNRWLVPMAGGPNARIAIKLLPALVTLSDDPQIRLTRVFKPWEFRPDMTVLEQAIRQLMRRRQLSSTVIAAPVQADSVVEGVIKLVETEGYDVVVLGASREGLLQQAIQGNIPEAIASGVDSTVILVR | failed |
| MQGENAPQRSAEVTILDKQAIDIPHPLPGQDDQEFWIYVQKGRLGPKREFQVGIHYYHALNPGDKGVLTYQGQRFLHFALKRLEHHHHHH | not failed |
| VGDHDSHEVMQRLDALLPTLRERAQETEDLRRIPDDSMKALQETGFFRLLQPEQWGGYQADPVLFYSAVRKIASACGSTGWVSSIIGVHNWHLALFSQQAQEDVWGNDTDVRISSSYAPMGAGQVVDGGYTVNGAWAWSSGCDHASWAVLGGPVIKDGRPVDFVSFLIPREDYRIDDVWNVVGLRGTGSNTVVVEDVFVPTHRVLSFKAMSNLTAPGLERNTAPVYKMPWGTIHPTTISAPIVGMAYGAYDAHVEHQGKRVRAAFAGEKAKDDPFAKVRIAEASSDIDAAWRQLSGNVADEYALLVAGEEVPFELRLRARRDQVRATGRAISSIDKLFESSGATALANGTPLQRFWRDAHAGRVHAANDPERAYVMYGTGEFGLPITDTMV | not failed |
| MKQEETKRYESFKREFFHWFLAFSGDEPFSVAAGELLMMLKEELALQQAVLYLFDPSCDAFCPEAAAGRMPAAESIVAEEKQEIVVIDDGGPCIVVRLFFLLSEETRAMLELMYGKERHIDREWLKVLRTDLSSLFRKLSALSQRTSEENRYEQLHRFAAKIHSTMQIDDVLEEIICTLQNVYPAFTYHLLLSHDNHVCGNLPIKTLALDESEGQPAALRAFLTGQVQCEETAAPPRSVLYAPIKGVQAVYGVIQIIAPYAAPFPKREINFISLLAGTAGRALENAKLYEQSRRLVADLQLINDTMRQLNARPRLCEAIEYMVSQIKESFGADEVGFFLFADGKRELLRGSTPFFYNDLSALYVEWVEARLLSGNDILFAGDVRTSDFGPFRSIMAAPMMQNKEMKGVCIVLAYETYRFTFEMFKLLQSLVQHSTLAFMNAILREELEKLVVTDYLTKLYTRRYLDEAIQKSMEEDALGSFLLIDIDNFKQINDTYGHQTGDDVLVQVAKMIRTNIRDGDIAARWGGEELAVYLPKVALLDAIAIARRIVEKVREHTVPSVTVSCGLSSWRRHDHDDAEQLFKRADAALYMAKETGKNAIFVHDGDHLYRG | failed |
